Data published in paper PMC6599559 (Journal of molecular biology, 2019).

Biological target: eukaryotic elongation factor 2 (eEF-2) from yeast (yeast (commercial yeast cake), UniProt P32324 1-842)
Experiment: ITC

eukaryotic elongation factor 2 (eEF-2) from yeast, sequence (P32324 whole entry): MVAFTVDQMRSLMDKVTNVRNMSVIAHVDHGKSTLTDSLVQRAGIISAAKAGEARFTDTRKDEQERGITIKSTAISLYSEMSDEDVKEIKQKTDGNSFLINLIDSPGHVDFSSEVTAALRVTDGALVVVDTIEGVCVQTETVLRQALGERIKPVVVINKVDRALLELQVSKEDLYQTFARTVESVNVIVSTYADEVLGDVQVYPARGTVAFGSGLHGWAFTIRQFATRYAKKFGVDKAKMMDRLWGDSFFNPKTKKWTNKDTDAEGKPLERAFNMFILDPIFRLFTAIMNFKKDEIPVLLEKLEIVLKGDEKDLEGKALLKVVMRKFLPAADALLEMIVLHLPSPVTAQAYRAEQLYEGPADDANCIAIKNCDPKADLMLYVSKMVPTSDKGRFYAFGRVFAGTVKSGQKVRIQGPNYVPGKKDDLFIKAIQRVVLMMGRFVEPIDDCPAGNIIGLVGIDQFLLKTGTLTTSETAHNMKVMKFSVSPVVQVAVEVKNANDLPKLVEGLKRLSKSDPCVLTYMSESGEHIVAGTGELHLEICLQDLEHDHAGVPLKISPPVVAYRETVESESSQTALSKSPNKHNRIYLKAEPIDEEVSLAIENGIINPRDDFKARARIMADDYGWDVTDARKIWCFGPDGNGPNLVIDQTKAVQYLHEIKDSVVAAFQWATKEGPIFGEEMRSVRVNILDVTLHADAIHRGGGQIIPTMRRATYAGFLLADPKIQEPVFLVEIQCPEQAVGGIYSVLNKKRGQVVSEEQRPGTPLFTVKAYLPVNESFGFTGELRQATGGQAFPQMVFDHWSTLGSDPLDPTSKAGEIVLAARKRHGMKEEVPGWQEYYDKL

B1: eEF-2K_(592–725), C-terminal fragment of human eukaryotic elongation factor 2 kinase (residues E592-E725) (domain or fragment, UniProt O00418 592-725, looked up)
chain: ENKTKGFDYLLKAAEAGDRQSMILVARAFDSGQNLSPDRCQDWLEALHWYNTALEMTDCDEGGEYDGMQDEPRYMMLAREAEMLFTGGYGLEKDPQRSGDLYTQAAEAAMEAMKGRLANQYYQKAEEAWAQMEE
A Kd of 15.4 to 19 µM was found for B1 in this work.

B2: eEF-2K_(562–725), C-terminal fragment of human eukaryotic elongation factor 2 kinase (residues G562-E725) (domain or fragment)
chain: SHMGELEAIVGLGLMYSQLPHHILADVSLKETEENKTKGFDYLLKAAEAGDRQSMILVARAFDSGQNLSPDRCQDWLEALHWYNTALEMTDCDEGGEYDGMQDEPRYMMLAREAEMLFTGGYGLEKDPQRSGDLYTQAAEAAMEAMKGRLANQYYQKAEEAWAQMEE
A Kd of 4.2 to 8.9 µM was found for B2 in this work.
